Here are results for two substances from paper PMC4212835.

The assay addresses Enterococcus faecalis pyruvate dehydrogenase complex component E2 (dihydrolipoamide acetyltransferase) (Enterococcus faecalis). Description: SEC.

Consider “Enterococcus faecalis pyruvate dehydrogenase complex component E1 (pyruvate dehydrogenase; E1α and E1β) (from UniProt A0ACD6TC15 1-371)”, for which the relative abundance of subunits E1, E2, and E3 (mass ratio, E2 = 1) stood at 2.27 mass ratio.

As to “Enterococcus faecalis pyruvate dehydrogenase complex component E3 (dihydrolipoyl dehydrogenase) (from UniProt A0ACD6TCW3 1-468) (enzyme)”, the relative abundance of subunits E1, E2, and E3 (mass ratio, E2 = 1) stood at 1.26 mass ratio.
